This note sets out measurements from patent US7824885B2, “Engineered proteases for affinity purification and processing of fusion proteins” (University of Maryland, College Park, priority 2003, dated 2010).

Common to all, as to format: biochemical
The test system of one assay is fusion protein pR58-GB. In words: kinetics of fusion protein pR58-GB cleavage by D32 mutants, anion triggered. The settings on record: 0.1M KPi; for Rate vs. [Cl]: pH 8.8, 23 C; for Rate vs. pH: 23 C. The source says:
Particularly advantageous are processing proteases whose activity is triggered on demand. Ions which have been useful as triggers are OH— (pH), Cl— and F—. The tables summarize cleavage rates of various D32 mutants as a function of specific anion.
Thus, S189 can be trigger to increase cleavage rates if desired and this can be very advantageous when required in a purification process. Once the fusion protein is bonded to the subtilisin variant to form a binding complex, the target protein can be cleaved from the prodomain protein by activation of the subtilisin variant with the introduction of an activating ion solution.

The next assay has as its system pR58-GB. In words: binding and cleavage of pR58-GB on immobilized S189 matrix. The procedure: The binding and catalytic properties of processing subtilisin allows them to be used as both the affinity matrix and processing protease for purification of proteins tagged with the pR58 sequence.
An E. coli cell lysate containing pR58-GB was passed over the matrix containing immobilized S189. Cleavage of the bound fusion protein then was then effected either by addition of a triggering anion (e.g. 10 mM KF) or by extended incubation (e.g. 18 hours at pH 7.2) as shown in FIG. 6. After cleavage the pure, processed protein was washed off the matrix while the cognate prodomain remains tightly bound to subtilisin on the matrix. Multiple rounds of purification can be affected by stripping the pR58 from the S189 column at pH 2.1 and re-equilibrating the column at neutral pH. High stable and facile-folding mutants such as those listed in the Table 1 (FIG. 3) of Processing Subtilisin are required for column recycling.

The next assay deals with 671 (pR58FKAM-GB). Nature of the assay: fluoride-triggered cleavage/elution of 671 fusion protein on S189HT1 column. To be noted: cleavage/elution by 0.1M KF, FIG. 14. The procedure:
(10 μl of 1 ml fraction 1; ˜7 μg total) • Lane 6: cleavage/elution by 0.1 M KF. (10 μl of 1 ml fraction 2; ˜3 μg total) • Lane 7: strip by 0.1 M H3PO4 (10 μl of 1 ml fraction 1; ˜10 μg total in both bands combined).

B1: S189: processing subtilisin with D32A mutation (protein, UniProt P00782 108-382, looked up, variant D32A)
Subtilisin BPN': AQSVPYGVSQIKAPALHSQGYTGSNVKVAVIASGIDSSHPDLKVAGGASMVPSETNPFQDNNSHGTHVAGTVAALNNSIGVLGVAPSASLYAVKVLGADGSGQYSWIINGIEWAIANNMDVINMSLGGPSGSAALKAAVDKAVASGVVVVAAAGNEGTSGSSSTVGYPGKYPSVIAVGAVDSSNQRASFSSVGPELDVMAPGVSIQSTLPGNKYGAYNGTSMASPHVAGAAALILSKHPNWTNTQVRSSLENTTTKLGDSFYYGKGLINVQAAAQ
Molecule B1 came in with a Rate in the assay on fusion protein pR58-GB (pH 7.2, 23 C) of 0.18 h⁻¹. Also, the results for the “Rate vs. [Cl]” value in the assay with fusion protein pR58-GB ([Cl] 0 M) and in the assay on fusion protein pR58-GB ([Cl] 0.5 M) were 0.97 h⁻¹ and 5 h⁻¹, respectively. Also, the “Rate vs. [F]” value with fusion protein pR58-GB ([F] 0 mM, pH 7.2, 23 C) is 0.003 min⁻¹; in the assay with fusion protein pR58-GB ([F] 1 mM, pH 7.2, 23 C) it was 0.018 min⁻¹; with fusion protein pR58-GB ([F] 10 mM, pH 7.2, 23 C) it was 0.14 min⁻¹; in the assay with fusion protein pR58-GB ([F] 100 mM, pH 7.2, 23 C), 0.8 min⁻¹. Further, the “Rate vs. pH” value was 0.135 hr^−1 in the assay with fusion protein pR58-GB (pH 5.7), 0.18 hr^−1 in the assay with fusion protein pR58-GB (pH 7.2), 0.97 hr^−1 with fusion protein pR58-GB (pH 8.8) and 4 hr^−1 with fusion protein pR58-GB (pH 10.0). In the assay with pR58-GB (FIG. 5), the “rate of binding to the prodomain” value is reported as “rapid”. The half-time of cleavage result with pR58-GB (FIG. 6, a lag phase is evident) is reported as “about four”. For the same molecule, the cleavage reaction complete with 671 (pR58FKAM-GB) is recorded as about 90%.
